± gives the standard deviation.
Test: protein stability index of a GFP-peptide fusion (GPS, HEK-293T) (PSI 1-6); higher = more stable
[1] = treatment: DMSO, c terminus: a fixed tail appended
[2] = treatment: MLN4924 1 uM, 8 h, c terminus: a fixed tail appended
[3] = treatment: DMSO, c terminus: native
[4] = treatment: MLN4924 1 uM, 8 h, c terminus: native
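Further: 24-mer peptide tiles fused after GFP, lentivirally expressed, FACS-sorted into six equal bins by GFP/DsRed ratio, decoded by Illumina sequencing, PSI is the read-weighted mean bin number.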

Row | Sequence | protein stability index [1] | protein stability index [2] | protein stability index [3] | protein stability index [4]
1 | CSVHYVSDSGDGVYAGRPLSVIQM [FBXO34] | 2.37 ± 0.78 | 2.75 ± 0.68 | – | –
2 | CTDSVVKYELMRPSNKAPLLVLCE [EHMT1] | 2.02 ± 0.26 | 2.22 ± 0.24 | – | –
3 | CVDLTITNLLEGAVAFMPEDITKG [AUP1] | 2.29 ± 0.2 | 2.57 ± 0.33 | – | –
4 | CVNYEGQSAYDVADMLKQYFRDLP [DLC1] | 2.54 ± 0.21 | 2.65 ± 0.32 | – | –
5 | CVTLVWRMPDEDSKIDHYVLEYRR [FSD1] | 2.29 ± 0.43 | 1.93 ± 0.3 | – | –
6 | CYETLPRGQCLLYNWEEERATNHL [SPAG8] | 2.92 ± 0.16 | 3.09 ± 0.23 | – | –
7 | DAEMELRAKEEERLNKLRLESEGS [HACD3] | 5.56 ± 0.28 | 5.3 ± 0.24 | – | –
8 | DAFWWAVVSMTTVGYGDMYPVTIG [KCNA1] | 3.45 ± 0.23 | 3.33 ± 0.49 | – | –
9 | DALMKEQLVEMTGLSPRVIRVWFQ [ISL2] | 2.27 ± 0.27 | 2.22 ± 0.12 | – | –
10 | DCLEGKKSKHAPRGTHLWEFIRDI [ELF3] | 2.66 ± 0.2 | 2.66 ± 0.39 | – | –
11 | DCRVDLGSEVYRMLREPAEPVAAE [PDLIM4] | 4.67 ± 0.05 | 4.76 ± 0.092 | – | –
12 | DCTETIEGLELTEQTFSPAKSLSF [ADD1] | 4.16 ± 0.36 | 4.21 ± 0.26 | – | –
13 | DDEDEEEEDADCYDDDDSGNEES [UBE2R2] | – | – | 5.57 ± 0.33 | 5.57 ± 0.084
14 | DEAKKFHLRPELRSQMQGPRTRAR [KLHL12] | 4.8 ± 0.1 | 4.67 ± 0.42 | – | –
15 | DEDELRKSLSELVDDKFGTGTKKV [PSD2] | 5.2 ± 0.15 | 5.4 ± 0.21 | – | –
16 | DEEHMEEAITSASFLEQIMAPLQP [FAM189A2] | 4.74 ± 0.18 | 4.96 ± 0.19 | – | –
17 | DELTLARTDLEMQIEGLNEELAYL [KRT15] | 4.1 ± 0.21 | 4.42 ± 0.36 | – | –
18 | DENERDLMHIAHIAELLEVFDLRM [RHOBTB2] | 2.63 ± 0.11 | 2.7 ± 0.34 | – | –
19 | DGAGKTPTLGGGFHVNLGKESRAQ [BRF1] | 4.63 ± 0.14 | 4.77 ± 0.34 | – | –
20 | DGAPALCPSPEALSPEPPVYSLQD [PRKX] | 5.37 ± 0.098 | 5.21 ± 0.15 | – | –
21 | DISMEIPQEFQKTVSTMYYLWMCS [SCAMP3] | 2.28 ± 0.54 | 2.38 ± 0.39 | – | –
22 | DKEGYNSIHYAAAYGHRQCLELVS [ANKRD44] | 2.42 ± 0.14 | 2.59 ± 0.21 | – | –
23 | DLDACALVRGHRRRLLRRLSPSRG [ZSWIM9] | 4.11 ± 0.46 | 4.12 ± 0.29 | – | –

Row | Sequence | protein stability index [1] | protein stability index [2] | protein stability index [3] | protein stability index [4]
24 | DLDNYFTARRLLSQVRALDRFQVP [NFE2L1] | 2.5 ± 0.2 | 2.35 ± 0.3 | – | –
25 | DLHKMNHVTPPNVSLGATGGPPAG [JUNB] | 4.38 ± 0.19 | 4.39 ± 0.078 | – | –
26 | DLKLRKFVFSTEERTQLRLESLED [TRIB1] | 3.74 ± 0.1 | 4.2 ± 0.43 | – | –
27 | DLYNWEVAIFGPPNTYYEGGYFKA [CDC34] | 2.65 ± 0.5 | 2.51 ± 0.95 | – | –
28 | DMAGDWHWALRVTPGLGVVAVLLL [SPNS1] | 2.82 ± 0.41 | 2.5 ± 0.48 | – | –
29 | DNILSLINVNDLSFVTGSHVGELI [WDR41] | 2.36 ± 0.32 | 2.63 ± 0.31 | – | –
30 | DNVRSLKVESGAWIGYEHTSFCGQ [CRYBA1] | 3.14 ± 0.2 | 3.07 ± 0.22 | – | –
31 | DPALRRRRRGPRNKKRGWRRLAQE [NOP53] | 4.73 ± 0.3 | 4.92 ± 0.24 | – | –
32 | DPDVGVNSLQSYQLSPNKHFSLRV [PCDHGA10] | 2.6 ± 0.25 | 2.51 ± 0.24 | – | –
33 | DPRYNKWMQVASLNEKRTFFHLSA [KLHL13] | 2.36 ± 0.32 | 2.12 ± 0.13 | – | –
34 | DPSKRALSRDTVQESYENVDSLES [ZNF263] | 5.51 ± 0.065 | 5.56 ± 0.18 | – | –
35 | DQGDEGKEGRPGIPGLPGLRGLPG [SCARA5] | 5 ± 0.13 | 4.93 ± 0.29 | – | –
36 | DQPMGGWEMIRKIGDTSVSYKYTS [LMNB1] | 3.1 ± 0.31 | 3.2 ± 0.28 | – | –
37 | DRFSGETSAAALSPMSAATLGGLN [SMTNL2] | 4.46 ± 0.14 | 4.21 ± 0.24 | – | –
38 | DRGGWGISPRGAGYTFGQDISETF [PPP2CA] | 3.21 ± 0.18 | 3.3 ± 0.34 | – | –
39 | DRGKDSVEILMILFAFMLVYPKEF [PPEF2] | 2.97 ± 0.19 | 2.71 ± 0.61 | – | –
40 | DRHGVYGLQRNLLVENIIDIYKQE [TRIM63] | 3.2 ± 0.32 | 3.39 ± 0.24 | – | –
41 | DSFTTNKEHAVTMPCTWVMACAYA [GNB5] | 2.73 ± 0.79 | 2.53 ± 0.58 | – | –
42 | DSLPMDAYTHGCILHPELTVDSMI [GDAP1] | 3.29 ± 0.26 | 3.47 ± 0.11 | – | –
43 | DSRRVTKENSHQVKEELSQKFDTL [TRIM63] | 5.08 ± 0.066 | 5.02 ± 0.28 | – | –
44 | DSTTTRQRRSRQNPQSPPQDSSVT [HDAC6] | 5.13 ± 0.24 | 5.53 ± 0.098 | – | –
45 | DVDLLDSKVIEILDSQTEIYQYVQ [DLC1] | 3.41 ± 0.31 | 3.62 ± 0.38 | – | –
46 | DVELLQDLGDIVARSESVLLHMPQ [TRIM43] | 3.18 ± 0.2 | 3.25 ± 0.35 | – | –

Row | Sequence | protein stability index [1] | protein stability index [2] | protein stability index [3] | protein stability index [4]
47 | DVGDWRKNIEEKSGMEGRKKMFES [TNNI2] | 4.3 ± 0.14 | 4.38 ± 0.25 | – | –
48 | DVSLVGGPADCSPPHPAPAPQHPA [DYRK1B] | 5.02 ± 0.16 | 5.14 ± 0.12 | – | –
49 | DWRKNIEEKSGMEGRKKMFESES [TNNI2] | – | – | 3.04 ± 0.93 | 3.86 ± 0.92
50 | EAAEAVRPEERKTCRNPACGPQWE [ADAMTSL2] | 4.8 ± 0.27 | 4.74 ± 0.21 | – | –
51 | EAFRLKQQLHARYVLNLLYETKKH [PPEF2] | 2.5 ± 0.61 | 2.36 ± 0.33 | – | –
52 | ECSYTSADGQRHHSKLLVSGFWGV [DHCR7] | 2.09 ± 0.1 | 2.17 ± 0.31 | – | –
53 | EDEDIYKLRHDLKKTSITQQPSKH [PLK2] | 4.98 ± 0.35 | 5.1 ± 0.13 | – | –
54 | EDEDPEEMPKSSDFLIHPPERSDL [PCDHGC5] | 5.41 ± 0.13 | 5.4 ± 0.24 | – | –
55 | EDHLAVKHFSVEGQLEFRALLFIP [HSP90AB1] | 1.57 ± 0.54 | – | – | –
56 | EDQVVVNKAAVMVHQLSKKEASRH [CTNNB1] | 4.82 ± 0.25 | 4.8 ± 0.22 | – | –
57 | EEFAAGPAQSGILSDREVVNLFLH [BTBD1] | 3.16 ± 0.56 | 3.46 ± 0.22 | – | –
58 | EEPELSPAYLISEAMRRSRMSLYC [GFOD1] | 2.43 ± 0.23 | 2.37 ± 0.3 | – | –
59 | EFLGNRSVILNHMAREHAFNIGLP [ZNF277] | 2.21 ± 0.19 | 2.26 ± 0.2 | – | –
60 | EFLWGPRAHAEIRKMSLLKFLAKV [MAGEA10] | 2.38 ± 0.3 | 2.66 ± 0.17 | – | –
61 | EFRAHRAVLAASSPYFHDQVLLKG [ZBTB22] | 2.57 ± 0.23 | 2.77 ± 0.4 | – | –
62 | EGGGGGSYFSGQGSDTGASLKLAS [JUNB] | 4.67 ± 0.12 | 4.72 ± 0.12 | – | –
63 | EGQDLQHISNQKMPTGPPEDRLSL [DRICH1] | 5.11 ± 0.37 | 5.03 ± 0.26 | – | –
64 | EHGLHTKYIHRMMQIEFIKQGSMN [TRAF3IP2] | 2.3 ± 0.2 | 2.5 ± 0.26 | – | –
65 | EHVFDLILELYNIDSHLLLSVLPQ [PDS5B] | 2.92 ± 0.47 | 2.85 ± 0.72 | – | –
66 | EHYRVQTQQTGTVRFDGYVIDGAT [FEM1B] | 3.64 ± 0.3 | 3.88 ± 0.26 | – | –
67 | EIFRRHFRQLCYQETPGPREALTR [ZSCAN9] | 2.51 ± 0.17 | 2.76 ± 0.24 | – | –
68 | EIGTSDQIVPEYQEDSDISSFFC [TRIB1] | – | – | 3.38 ± 0.66 | 4.22 ± 0.82
69 | EIKDKDQLVLRTKEAFDTIQEQKV [SASS6] | 4.54 ± 0.25 | 4.53 ± 0.46 | – | –

Row | Sequence | protein stability index [1] | protein stability index [2] | protein stability index [3] | protein stability index [4]
70 | EIMLQYCFPRLDINVSKGINHLLK [PRIM1] | 2.18 ± 0.67 | 2.5 ± 0.47 | – | –
71 | EIQREIGISNALHRLKLRLAIQEM [PPFIA4] | 2.35 ± 0.72 | 2.3 ± 0.45 | – | –
72 | EKEDAEKENIEKDEDDVDQELANI [SRPK2] | 5.62 ± 0.36 | 5.61 ± 0.31 | – | –
73 | EKEEDHAPEFIKVRENLRRIATLT [FAM107A] | 2.58 ± 0.56 | 2.81 ± 0.6 | – | –
74 | EKQELQELNDRFANFIEKVRFLEQ [PRPH] | 3.08 ± 0.17 | 3.29 ± 0.34 | – | –
75 | EKQKQPRWREGTKDSHDPLPSWAE [PBXIP1] | 3.01 ± 0.51 | 3.18 ± 1.1 | – | –
76 | EKRLQEIEELEREAERKIIEENIT [SRPK2] | 5.03 ± 0.33 | 5.39 ± 0.26 | – | –
77 | ELADARRALDDTARERAKLQIELG [LMNB1] | 4.72 ± 0.075 | 4.69 ± 0.15 | – | –
78 | ELKCPVCGSFYREPIILPCSHNLC [TRIM9] | 4.1 ± 0.29 | 4.12 ± 0.32 | – | –
79 | ELKKMVQQSDLGQYVTFLRSFSDK [ALG2] | 2.21 ± 0.29 | 2.53 ± 0.42 | – | –
80 | ELMPSSRLWSLSYTKLPSSLQSTG [SLC25A39] | 2.48 ± 0.13 | 2.47 ± 0.14 | – | –
81 | ELRDLQVSVESQQVQQVEVEATVK [PRPH] | 4.88 ± 0.2 | 4.96 ± 0.14 | – | –
82 | ELRGAEPGRPARLDQLLDMPAAGL [SPSB4] | 3.84 ± 0.46 | 4.02 ± 0.5 | – | –
83 | ELSLVTLFRCIQNMPETLPNNSCY [TNFSF13B] | 3.65 ± 1.3 | 2.94 ± 0.5 | – | –
84 | ELYGLALRFFKEKDGKAFHPTYEE [ACBD3] | 2.13 ± 0.26 | 2.19 ± 0.35 | – | –
85 | EMPKSSDFLIHPPERSDLTLYLIV [PCDHGC5] | 2.83 ± 0.47 | 2.72 ± 0.3 | – | –
86 | ENLKQQRSRREQFSRAPVSALPLA [STX5] | 3.74 ± 0.37 | 3.75 ± 0.17 | – | –
87 | EPCQLPSESPGSLSEVLAQPQGAL [DNAAF3] | 5.16 ± 0.22 | 5.13 ± 0.39 | – | –
88 | EPEKLYAMPDPAGPDGHLPAVATL [ESRRA] | 4.65 ± 0.27 | 4.69 ± 0.23 | – | –
89 | EPLPVERDPAAGAAPFRFVARPVR [ZNF511] | 2.77 ± 0.68 | 3.48 ± 0.87 | – | –
